From patent US20170002075A1 (AbbVie / Abbott, published 2017) come the findings set out here.

The term EC50 denotes the concentration needed to bring the measured effect to its halfway point. As usually defined, the Kd is the constant that tells how readily two partners part at equilibrium. For orientation: koff means the rate constant with which the complex falls apart. Usually kon stands for the second-order rate constant of association. Low readings indicate slow association, high ones fast association.

Assay [1] deals with T1, recombinant human RAGE (plate coat of the competition ELISA of Example 1.4).
T1 construct: not shown: The carrier of the coated preparation, if it had one
Briefly: competition ELISA on plates coated with recombinant human RAGE (2 µg/mL); competitor: biotinylated hybridoma-derived 11E6 (11E6-biotin), streptavidin-HRP, OD 450 nm; the unit comes from the axis 'Log MAbs (M)'. As for the experimental part: (§1) The purified chimeric anti-human RAGE monoclonal antibodies were tested for their ability to bind human RAGE in a competition ELISA. […] Equal volumes (50 μL) of each recombinant chimeric anti-human RAGE monoclonal antibodies or hybridoma-derived anti-human RAGE monoclonal antibodies and each corresponding biotinylated hybridoma-derived anti-RAGE mAbs were mixed. 50 μL of this mixture was then added to ELISA plates pre-coated with recombinant human RAGE at 2 μg/mL and incubated for 1.5 hours at room temperature. Wells were washed three times with PBS+0.05% Tween-20. Streptavidin HRP (1 mg/mL) was diluted 1:16000 in PBST+10% Superblock; 50 µL/well was added and the plates incubated for 1 hour at room temperature. Plates were washed 3 times with PBS+0.05% Tween-20. 50 µL of TMB solution (Sigma, St Louis, Mo.) was added to each well and incubated for 10 minutes at room temperature. The reaction was stopped by addition of IN sulphuric acid. Plates were read spectrophotometrically at a wavelength of 450 nm.
For orientation: In an ELISA, binding on a coated surface is turned into a signal by an enzyme label.

Assay [2] concerns the target T2, hRAGE (1-331) / human sRAGE 1-331, V#400 (human, UniProt Q15109 23-331).
T2 construct: also called sRAGE [RAGE (1-331)]; RAGE (antigen of the Biacore runs)
The assay can be described thus: Biacore SPR, mAb captured via anti-mouse Fc, human sRAGE 1-331 (V#400) injected, concurrent experiment, 1:1 fit. From the text: Biacore 2000 and Biacore T100 instruments were used to measure anti-RAGE mAb binding kinetics. The assay format for mAb affinity analysis was Fc-based capture via immobilized anti-Fc antibodies. A standard amine coupling protocol was employed to immobilize Fc-specific IgG via primary amines to the carboxy-methyl (CM) dextran surface of CM5 sensorchips (Biacore). For the study of mouse anti-RAGE mAbs, anti-mouse Fc (Biacore, anti-mouse, BR-1005-14) was used as the immobilized capture reagent and for the study of humanized anti-RAGE mAbs, anti-human Fc (Pierce 31125) was used as the immobilized capture reagent. An automated protocol, available on the Biacore 2000 and Biacore T100, was used to immobilize 8000-10000 RU of capture reagent in all 4 flowcells of the sensorchip. Briefly, the CM-dextran surfaces were activated by freshly prepared 1:1 50 mM N-hydroxysuccinimide (NHS):200 mM 3-(N,N-dimethylamino) propyl-N-ethylcarbodiimide (EDC). Then the anti-Fc IgG capture reagent (20 ug/ml in 10 mM sodium acetate, pH4.5) was applied to the surface followed by deactivation of the surface and blocking of the residual reactive sites with 1M ethanolamine (pH 8.5).
Data were processed using either Biacore evaluation software or Scrubber 2.0 software (BioLogic Software). Briefly, the data were double referenced by first, subtracting the signal from the reference cell and second, by subtracting the signal from buffer-only injections. The double referenced data for the RAGE injection series were then fit globally to a 1:1 (Langmuir) binding model, which included a mass transfer term, to determine the binding kinetic rate constants, kₐ and kd, and the affinity, KD (kₐ=kₒₙ; kd=koff)
(Surface plasmon resonance follows binding to a sensor surface in real time, without labels.)

Assay [3] addresses T1, recombinant human RAGE (plate coat of …). Briefly: competition ELISA on plates coated with recombinant human RAGE (2 µg/mL); competitor: biotinylated hybridoma-derived 4E5 (4E5-biotin), streptavidin-HRP, OD 450 nm; the unit comes from the axis 'Log MAbs (M)'. As for the experimental part:
as §1

For another assay, the target named is mouse RAGE (Mu-RAGE) (mouse, UniProt Q62151 23-340, limits assumed). The assay can be described thus: Biacore SPR (Table 7, column Mouse-RAGE); paragraph 283: 'Table 7 shows that 4E5 did not bind to mouse RAGE (Mu-RAGE)'.
In assay [4] the target is T3, E. coli RAGE Construct #1, OmpA-[RAGE (23-340)]-6His (human, UniProt Q15109 23-340).
T3 construct: Not glycosylated (E. coli); also called RAGE protein #1; E. coli-expressed sRAGE
The assay can be described thus: ELISA, fragment coated at 1 µg/ml. As for the experimental part: Antigens (purified construct #1-7 proteins) were diluted into Coating Buffer [100 mM NaHCO₃, pH 8.2] to 1 μg/ml, and 100 μl of the resulting solution was then aliquoted into a 96-well Nunc Immuno Plate (Maxi-Sorb Surface, flat bottom, catalog #439454). The plate was sealed with sealing film and incubated at 4° C. overnight. The next day, the plate wells were each washed 3 times with 150 μL PBST buffer [Sigma PBS+0.05% Tween 20]. Then 300 ul of blocking solution (3% NFDM in PBST) was added to each well. The plate was incubated for 2 hours at room temperature and shaking at 100 rpm. After the incubation step, each well was again washed three times with 150 uL PBST. […] The plate was then sealed with sealing film and incubated for 2 hours at room temperature and shaking at 100 rpm. Next the antibody solution was drained out of the wells, and each well then washed three times with 200 ul PBST. To each well then 200 ul of a 1:5000 dilution (in PBST/1% NFDM) of conjugated secondary antibody [Donkey anti-mouse HRPO conjugate, Jackson Immuno Research, Catalog #715-035-150] was added. The plate was covered and allowed to incubate for 1 hour at room temperature while shaking at 100 rpm. […] Finally, 50 μL of 2M H₂SO₄ was added to each well to stop the reaction and the A₅₄₀ₙₘ of each well was measured using a microtiter plate reader.

Assay [5] deals with T1, recombinant human RAGE (plate coat of …). Briefly: competition ELISA on plates coated with recombinant human RAGE (2 µg/mL); competitor: biotinylated hybridoma-derived 7F9 (7F9-biotin), streptavidin-HRP, OD 450 nm; the unit comes from the axis 'Log MAbs (M)'. How it is done:
as §1

T1 sequence (chain, as listed by the source limits assumed): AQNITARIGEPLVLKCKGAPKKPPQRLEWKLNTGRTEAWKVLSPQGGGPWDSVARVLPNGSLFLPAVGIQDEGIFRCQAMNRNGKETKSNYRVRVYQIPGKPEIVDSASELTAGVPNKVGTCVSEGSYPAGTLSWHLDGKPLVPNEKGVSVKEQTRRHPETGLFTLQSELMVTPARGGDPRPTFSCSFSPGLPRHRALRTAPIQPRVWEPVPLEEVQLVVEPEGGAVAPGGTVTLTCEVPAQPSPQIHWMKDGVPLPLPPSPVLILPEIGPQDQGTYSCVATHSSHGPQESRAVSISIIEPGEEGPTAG
T2 sequence (Q15109 23-331): as the sequence (chain, as listed by the source limits assumed) above
T3 sequence (Q15109 other isoform, or with tags, fused parts or gaps limits assumed): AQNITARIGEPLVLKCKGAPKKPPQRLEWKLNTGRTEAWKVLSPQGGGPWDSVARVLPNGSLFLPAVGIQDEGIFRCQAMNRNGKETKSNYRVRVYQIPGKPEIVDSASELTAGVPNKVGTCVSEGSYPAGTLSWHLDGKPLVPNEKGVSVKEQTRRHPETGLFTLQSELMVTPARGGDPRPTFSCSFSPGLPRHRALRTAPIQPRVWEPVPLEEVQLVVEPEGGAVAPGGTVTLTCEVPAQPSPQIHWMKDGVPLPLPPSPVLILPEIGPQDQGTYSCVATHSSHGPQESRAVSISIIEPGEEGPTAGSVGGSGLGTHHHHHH
Chain of mouse RAGE (Mu-RAGE) (Q62151 23-340 limits assumed): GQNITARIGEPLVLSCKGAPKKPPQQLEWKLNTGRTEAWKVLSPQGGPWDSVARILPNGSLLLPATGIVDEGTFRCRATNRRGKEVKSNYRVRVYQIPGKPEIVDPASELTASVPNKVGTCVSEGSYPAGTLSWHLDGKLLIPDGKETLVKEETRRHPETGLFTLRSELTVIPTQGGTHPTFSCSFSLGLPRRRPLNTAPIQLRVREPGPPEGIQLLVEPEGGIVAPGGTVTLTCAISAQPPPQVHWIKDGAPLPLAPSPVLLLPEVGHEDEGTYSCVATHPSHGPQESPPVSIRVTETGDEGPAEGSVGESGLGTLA

B1: anti-human RAGE monoclonal antibody 11E6 (murine, hybridoma-derived) (antibody, V domains shown)
VH: QIQLVQSGPELKKPGETVKISCKASGYTFTNFGMNWVKQAPGKGLKWMGYINTNTGESIYSEEFKGRFAFSLETSASTAYLQINNLKNEDTATYFCARSRMVTAYGMDYWGQGTSVTVSS
VL: DIVMTQSQKFMSTSVGDRVSITCKASQNVGTAVAWYQQRPGQSPKLLIFSASNRYTGVPDRFTGSGSGTDFTLTLSNMQPEDLADYFCQQYSSYPLTFGVGTKLELKR
notes: also called mAb11E6; ML37-11E6
In the case of B1, the EC50 in assay [1] is 90.9 nM. In assay [2], this molecule registered a Kd of 0.068 nM, a koff of 0.0013 s⁻¹ and a kon of 1.8e+07 M⁻¹ s⁻¹.

B2: anti-human RAGE monoclonal antibody 4E5 (murine, hybridoma-derived) (antibody, V domains shown)
VH: QVQLQQSGAELVRPGTSVKVSCKASGYAFNNYLIEWIKQRPGQGLEWIGVINPGSGGTNHNEKFKVKATLTADKSSSTAYIQLSSLTSDDSAVYFCARSAGTARARFAYWGQGTLVTVSA
VL: DIQMTQSPSSLSASLGERVSLTCRASQDIGSSLNWLQQEPDGTIKRLIYATSSLDSGVPKRFSGSRSGSDYSLTISSLESEDFVDYYCLQYASFPFTFGSGTKLEIKR
notes: also called mAb4E5; ML37-4E5
As for B2, the EC50 in assay [3] is 244 nM. In addition, the binding result with mouse RAGE (Mu-RAGE) is on record as “no binding”.

B3: anti-human RAGE monoclonal antibody 7F9 (murine, hybridoma-derived) (antibody, V domains shown)
VH: EEKLEESGGGLVQLGGSMKISCVASGFTLSNYWMDWVRQSPEKGLEWIAEIRLKSNYYSTHYAESVKGRFSISRDDSKGSVSLQMDNLTAEDTGIYFCARNAYWYFDVWGTGTTVTVSS
VL: DIVMTQSHKFMSTSVGDRVSATCKASQDVGTSVAWYQQKLGQSPKLLIYWTSTRHTGVPDRFTGSGSGTDFTLTISNVQSEDLADYFCQQYNNYPLTFGDGTKLELKR
notes: also called mAb7F9; MAb 7F9
As for B3, the binding result in assay [4] is recorded as “no binding”. Further, the EC50 in assay [5] worked out at 166 nM.
